{"source": "paper PMC8790125", "about": "“Molecular Mechanism of SARS-CoVs Orf6 Targeting the Rae1–Nup98 Complex to Compete With mRNA Nuclear Export”", "binders": {"B1": {"name": "14-mer poly(U) ssRNA (ssRNA)", "RNA": "UUUUUUUUUUUUUU"}}, "target": "Rae1;Nup98 GLEBS (human;human, UniProt P78406;P52948-3 1-368;157-213, |)", "sequence (P78406 whole entry, chain 1 of 2)": "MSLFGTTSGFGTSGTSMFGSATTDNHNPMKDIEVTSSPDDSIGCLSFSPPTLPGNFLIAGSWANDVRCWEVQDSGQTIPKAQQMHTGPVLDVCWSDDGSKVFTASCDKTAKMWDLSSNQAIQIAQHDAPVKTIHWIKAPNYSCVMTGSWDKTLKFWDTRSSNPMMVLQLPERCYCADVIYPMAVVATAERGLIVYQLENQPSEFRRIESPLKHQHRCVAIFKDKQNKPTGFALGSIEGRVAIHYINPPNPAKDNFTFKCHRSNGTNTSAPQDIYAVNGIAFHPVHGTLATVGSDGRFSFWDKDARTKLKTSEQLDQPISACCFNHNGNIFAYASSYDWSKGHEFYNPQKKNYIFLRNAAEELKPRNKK", "sequence (P52948 157-213, chain 2 of 2)": "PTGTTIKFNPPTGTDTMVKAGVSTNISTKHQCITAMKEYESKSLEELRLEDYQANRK", "test": "ITC", "details": "protein: recombinant;recombinant; tags: His tag on the complex (HisTrap); copies: 1;1", "data": [{"binder": "B1", "values": [{"measurement": "binding result", "value": "binds"}]}]}
